Experiments:
[1] = target: HA-tagged bovine pancreatic RNase N113S expressed in CHO cells (bovine) (UniProt P61823)
[2] = target: HA-tagged bovine pancreatic RNase expressed in CHO cells (bovine) (UniProt P61823)

Substance	efficiency of secretion after a 60-min chase (pulse-chase, CHO cells) [1]	efficiency of secretion after a 60-min chase (pulse-chase, CHO cells) [2]
HA-tagged bovine pancreatic RNase N113S expressed in CHO cells (from UniProt P61823 27-150) (enzyme)	72%	
HA-tagged bovine pancreatic RNase expressed in CHO cells (from UniProt P61823 27-150) (enzyme)		45%

Source: paper PMC3037694
